From IntAct's records for PubMed 31515488

B1: Nucleoside diphosphate kinase homolog 5 (Homo sapiens), P56597 (parent)
chain: MEISMPPPQIYVEKTLAIIKPDIVDKEEEIQDIILRSGFTIVQRRKLRLSPEQCSNFYVEKYGKMFFPNLTAYMSSGPLVAMILARHKAISYWLELLGPNNSLVAKETHPDSLRAIYGTDDLRNALHGSNDFAAAEREIRFMFPEVIVEPIPIGQAAKDYLNLHIMPTLLEGLTELCKQKPADPLIWLADWLLKNNPNKPKLCHHPIVEEPY
B2: Microtubule-associated tumor suppressor candidate 2 (Homo sapiens), Q5JR59-3 (parent)
chain: MGHCCCKPYNCLQCLDKTNESALVKEKELSIELANIRDEVAFHTAKCEKLQKEKEELERRFEDEVKRLGWQQQAELQELEERLQLQFEAEMARLQEEHGDQLLSIRCQHQEQVEDLTASHDAALLEMENNHTVAITILQDDHDHKVQELMSTHELEKKELEENFEKLRLSLQDQVDTLTFQSQSLRDRARRFEEALRKNTEEQLEIALAPYQHLEEDMKSLKQVLEMKNQQIHEQEKKILELEKLAEKNIILEEKIQVLQQQNEDLKARIDQNTVVTRQLSEENANLQEYVEKETQEKKRLSRTNEELLWKLQTGDPTSPIKLSPTSPVYRGSSSGPSSPARVSTTPR
partner: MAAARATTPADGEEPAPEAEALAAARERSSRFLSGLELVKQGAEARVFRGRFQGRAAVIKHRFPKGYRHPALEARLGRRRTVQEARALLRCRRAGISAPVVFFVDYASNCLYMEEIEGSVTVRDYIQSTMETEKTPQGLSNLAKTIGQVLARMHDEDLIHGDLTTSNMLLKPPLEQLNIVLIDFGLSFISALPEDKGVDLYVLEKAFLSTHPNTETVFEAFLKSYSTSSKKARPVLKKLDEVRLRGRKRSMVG
B3: Transmembrane protein 79 (Homo sapiens), Q9BSE2 (parent)
chain: MTEQETLALLEVKRSDSPEKSSPQALVPNGRQPEGEGGAESPGAESLRVGSSAGSPTAIEGAEDGLDSTVSEAATLPWGTGPQPSAPFPDPPGWRDIEPEPPESEPLTKLEELPEDDANLLPEKAARAFVPIDLQCIERQPQEDLIVRCEAGEGECRTFMPPRVTHPDPTERKWAEAVVRPPGCSCGGCGSCGDREWLRAVASVGAALILFPCLLYGAYAFLPFDVPRLPTMSSRLIYTLRCGVFATFPIVLGILVYGLSLLCFSALRPFGEPRREVEIHRRYVAQSVQLFILYFFNLAVLSTYLPQDTLKLLPLLTGLFAVSRLIYWLTFAVGRSFRGFGYGLTFLPLLSMLMWNLYYMFVVEPERMLTATESRLDYPDHARSASDYRPRPWG
B4: Protein SPMIP9 (Homo sapiens), Q96LM6 (parent)
chain: MAGVKYPGQDPVDLDIYQSSHMVDYQPYRKHKYSRVTPQEQAKLDAQLRDKEFYRPIPNPNPKLTDGYPAFKRPHMTAKDLGLPGFFPSQEHEATREDERKFTSTCHFTYPASHDLHLAQGDPNQVLQSADFPCLVDPKHQPAAEMAKGYLLLPGCPCLHCHIVKVPILNRWGPLMPFYQ
partner: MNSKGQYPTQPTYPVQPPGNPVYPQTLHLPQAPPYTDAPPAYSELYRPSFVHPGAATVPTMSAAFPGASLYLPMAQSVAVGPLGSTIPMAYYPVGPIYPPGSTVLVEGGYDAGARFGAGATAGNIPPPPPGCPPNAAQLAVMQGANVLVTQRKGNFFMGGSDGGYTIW
B5: Protein FAM9B (Homo sapiens), Q8IZU0 (parent)
chain: MAAWGKKHAGKDPVRDECEERNRFTETREEDVTDEHGEREPFAETDEHTGANTKKPEDTAEDLTAKRKRMKMDKTCSKTKNKSKHALRKKQLKRQKRDYIHSLKLLNVLEEYITDEQKEEEEEEGEEEELIRIFQEQQKKWQQYRSVRRERLKEMKLLRDQFVKALEDFEDLCDRVFSDEDSELDN
partner: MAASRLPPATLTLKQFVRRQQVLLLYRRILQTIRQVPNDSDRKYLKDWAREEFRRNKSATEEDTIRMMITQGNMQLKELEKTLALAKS
B6: Progranulin (Homo sapiens), P28799 (parent)
chain: MWTLVSWVALTAGLVAGTRCPDGQFCPVACCLDPGGASYSCCRPLLDKWPTTLSRHLGGPCQVDAHCSAGHSCIFTVSGTSSCCPFPEAVACGDGHHCCPRGFHCSADGRSCFQRSGNNSVGAIQCPDSQFECPDFSTCCVMVDGSWGCCPMPQASCCEDRVHCCPHGAFCDLVHTRCITPTGTHPLAKKLPAQRTNRAVALSSSVMCPDARSRCPDGSTCCELPSGKYGCCPMPNATCCSDHLHCCPQDTVCDLIQSKCLSKENATTDLLTKLPAHTVGDVKCDMEVSCPDGYTCCRLQSGAWGCCPFTQAVCCEDHIHCCPAGFTCDTQKGTCEQGPHQVPWMEKAPAHLSLPDPQALKRDVPCDNVSSCPSSDTCCQLTSGEWGCCPIPEAVCCSDHQHCCPQGYTCVAEGQCQRGSEIVAGLEKMPARRASLSHPRDIGCDQHTSCPVGQTCCPSLGGSWACCQLPHAVCCEDRQHCCPAGYTCNVKARSCEKEVVSAQPATFLARSPHVGVKDVECGEGHFCHDNQTCCRDNRQGWACCPYRQGVCCADRRHCCPAGFRCAARGTKCLRREAPRWDAPLRDPALRQLL
partner: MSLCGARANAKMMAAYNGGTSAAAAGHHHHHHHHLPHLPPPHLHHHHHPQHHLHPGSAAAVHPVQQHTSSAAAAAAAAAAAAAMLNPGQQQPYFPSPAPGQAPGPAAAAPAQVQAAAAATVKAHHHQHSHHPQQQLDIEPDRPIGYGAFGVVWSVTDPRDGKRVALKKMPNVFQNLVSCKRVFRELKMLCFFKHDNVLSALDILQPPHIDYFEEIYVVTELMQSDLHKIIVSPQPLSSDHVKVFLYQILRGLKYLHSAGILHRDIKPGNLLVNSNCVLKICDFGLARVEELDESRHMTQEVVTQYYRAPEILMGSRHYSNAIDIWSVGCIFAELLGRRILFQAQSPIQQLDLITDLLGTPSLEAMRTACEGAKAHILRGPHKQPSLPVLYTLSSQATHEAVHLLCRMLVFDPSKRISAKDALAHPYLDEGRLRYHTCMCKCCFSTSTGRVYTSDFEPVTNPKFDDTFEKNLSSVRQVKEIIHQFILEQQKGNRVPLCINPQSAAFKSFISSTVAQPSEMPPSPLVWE

Variants of: B1
Settings: with dydc1_human DYDC1, Q8WWB3
Sequence of dydc1_human DYDC1, Q8WWB3 (Q8WWB3 whole entry): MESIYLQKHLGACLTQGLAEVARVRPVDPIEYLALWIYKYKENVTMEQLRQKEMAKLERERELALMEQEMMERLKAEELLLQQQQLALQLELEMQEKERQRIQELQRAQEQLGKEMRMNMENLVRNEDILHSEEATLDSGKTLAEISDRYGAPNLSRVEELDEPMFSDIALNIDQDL

effect of a mutation on the interaction | Variant
with no effect | N198D
with no effect | S50N
with no effect | I165M

Variants of: B2
Settings: with prpk_human TP53RK

effect of a mutation on the interaction | Variant
with no effect | A89V

Variants of: B3
Settings: with tnmd_human TNMD

effect of a mutation on the interaction | Variant
with no effect | V322I

Variants of: B3
Settings: with pspc_human SFTPC

effect of a mutation on the interaction | Variant
with no effect | V147M
with no effect | S104T
with no effect | D144G

Variants of: B3
Settings: with sarco_human SLN

effect of a mutation on the interaction | Variant
with no effect | V147M
with no effect | S104T
with no effect | D144G

Variants of: B3
Settings: with sc22a_human SEC22A

effect of a mutation on the interaction | Variant
with no effect | V147M
with no effect | S104T
with no effect | D144G

Variants of: B3
Settings: with tx264_human TEX264, Q9Y6I9
Sequence of tx264_human TEX264, Q9Y6I9 (Q9Y6I9 whole entry): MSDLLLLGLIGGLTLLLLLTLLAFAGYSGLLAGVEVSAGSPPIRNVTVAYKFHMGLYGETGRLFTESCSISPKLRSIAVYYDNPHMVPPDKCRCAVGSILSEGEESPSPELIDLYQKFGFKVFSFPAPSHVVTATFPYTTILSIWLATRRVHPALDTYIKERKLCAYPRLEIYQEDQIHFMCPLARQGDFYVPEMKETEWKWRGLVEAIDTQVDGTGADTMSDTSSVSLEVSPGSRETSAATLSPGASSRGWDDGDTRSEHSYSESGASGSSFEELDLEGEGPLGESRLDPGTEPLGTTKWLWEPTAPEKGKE

effect of a mutation on the interaction | Variant
with no effect | V147M
with no effect | S104T
with no effect | D144G

Variants of: B4
Settings: with dazp2_human DAZAP2, Q15038

effect of a mutation on the interaction | Variant
with no effect | I16V
with no effect | P177S
with no effect | Y68H

Variants of: B5
Settings: with lyrm2_human LYRM2, Q9NU23

effect of a mutation on the interaction | Variant
with no effect | R23H

Variants of: B6
Settings: with nlk_human NLK

effect of a mutation on the interaction | Variant
with no effect | R19W
